From patent US20090041784A1 (Amgen, published 2009)
Positions count from the first letter of the chain named. Read-outs that look alike come from different tables or passages of the source.

B1: antibody A-3 (antibody, V domains shown)
VH: QVQLVESGGGVVQPGRSLRLSCAASGFTFSSYGMHWVRQAPGKGLEWVAVMWYDGSNKDYVDSVKGRFTISRDNSKNTLYLQMNRLRAEDTAVYYCAREKDHYDILTGYNYYYGLDVWGQGTTVTVSS
VL: DIQMTQSPSSLSASVGDRVTITCRASQGIRNDLGWYQQKPGKAPKRLIYAASSLQSGVPSRFSGSGSGTEFTLTISSVQPEDFVTYYCLQHNSNPLTFGGGTKVEIK
notes: Human antibody from XenoMouse hybridoma; also called L3H3; antibody 3
B2: antibody A-4 (antibody, V domains shown)
VH: B1 VH with R85S
VL: B1 VL with V78L, V84A
notes: Human antibody from XenoMouse hybridoma (IgG2 or IgG4 strains), purified from conditioned medium; also called L4H4; antibody 4
B3: antibody A-18 (antibody, V domains shown)
VH: QVQLVESGGGVVQPGRSLRLSCAASGFTFSRYGMHWVRQAPGKGLEWVAVIWYDGSHKYYEDSVKGRFTISRDNSKNTLYLQMNSLRADDTGVYYCARVGYGSGWYEYYYHYGMDVWGQGTTVTVSS
VL: NIVMTQTPLSLSVTPGQPASISCKSSQSLLHSDGKNYLFWYLQKPGQSPQLLIYEVSYRFSGVPDRFSGSGSGTDFSLKISRVEAEDVGVYYCMQNIQPPLTFGQGTRLEIK
notes: Human antibody from XenoMouse hybridoma (IgG2 or IgG4 strains), purified from conditioned medium; also called L18H18
B4: antibody A-21 (antibody, V domains shown)
VH: EVRLVESGGDLVQPGGSLRLSCAASGFTFSSYAMNWVRQAPGKGLEWISYIGSSSSAIYYGDSVKGRFTISRDNAKNSLYLQMNSLRDEDTAVYYCARYRSGWSPLFDFWGQGSLVTVSS
VL: DIQMTQSPSSVSASVGDRVTITCRASQGISSWLAWYQQKPGKAPKLLIYAASSLQSGVPSRFSGSGSGTDFTLTISSLQPEDFATYYCQQANSFPLTFGGGTKVEIK
notes: Human antibody from XenoMouse hybridoma; also called L21H21

Experiments:
human glucagon receptor [1] = biological target: T1, human glucagon receptor (human, UniProt P47871 26-477); assay: cell-based or functional assay
mouse glucagon receptor [2] = biological target: T2, mouse glucagon receptor (mouse (Mus musculus), UniProt Q61606 27-485); assay: cell-based or functional assay
[3] = biological target: T3, cynomolgus glucagon receptor (cynomolgus (Macaca fascicularis), UniProt P47871 26-477 (human entry)); assay: cell-based or functional assay
T3 chain: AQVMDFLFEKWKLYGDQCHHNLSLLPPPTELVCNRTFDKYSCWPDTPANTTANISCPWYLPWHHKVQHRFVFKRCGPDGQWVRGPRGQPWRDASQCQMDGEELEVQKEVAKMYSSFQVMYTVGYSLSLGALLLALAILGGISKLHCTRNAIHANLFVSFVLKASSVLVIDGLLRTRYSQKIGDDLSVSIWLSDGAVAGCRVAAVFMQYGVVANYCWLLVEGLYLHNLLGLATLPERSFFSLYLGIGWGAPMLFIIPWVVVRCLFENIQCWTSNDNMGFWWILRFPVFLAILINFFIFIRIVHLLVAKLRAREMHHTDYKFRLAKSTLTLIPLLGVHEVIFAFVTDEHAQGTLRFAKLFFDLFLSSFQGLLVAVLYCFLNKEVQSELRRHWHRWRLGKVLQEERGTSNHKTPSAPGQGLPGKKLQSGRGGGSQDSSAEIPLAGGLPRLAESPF

rat glucagon receptor [4] = biological target: T4, rat glucagon receptor (rat (Rattus norvegicus), UniProt P30082 27-485); assay: cell-based or functional assay
human glucagon receptor [5] = biological target: T1, human glucagon receptor; assay: Schild analysis of glucagon dose-response curves (cAMP HTRF) on CHO K1 cells expressing the receptor
mouse glucagon receptor [6] = biological target: T2, mouse glucagon receptor; assay: as above
[7] = biological target: T3, cynomolgus glucagon receptor; assay: as above
rat glucagon receptor [8] = biological target: T4, rat glucagon receptor; assay: as above
[9] = biological target: T5, chimera-8 (amino acids 80-477 from human GCGR, remainder from human GLP-1 receptor) (human, UniProt P43220 24-83); assay: FMAT on cells expressing the chimeric receptor
T5 construct: Expressed on cells; not shown: in-frame C-terminal fluorescent protein, not identified

[10] = biological target: T6, chimera-10 (amino acids 80-142 from human GCGR, remainder from human GLP-1 receptor) (human, UniProt P43220 24-83; P43220 146-463); assay: FMAT on cells expressing the chimeric receptor
T6 construct: Expressed on cells; not shown: in-frame C-terminal fluorescent protein, not identified

[11] = biological target: T7, chimera-15 (amino acids 80-119 from human GCGR, remainder from human GLP-1 receptor) (human, UniProt P43220 24-83; P43220 125-463); assay: FMAT on cells expressing the chimeric receptor
T7 construct: Expressed on cells; not shown: in-frame C-terminal fluorescent protein, not identified

human glucagon receptor [12] = biological target: T1, human glucagon receptor; assay: cell-based or functional assay; remark: listed apart in the source

Binder | IC50 of inhibition of glucagon-induced cAMP production (HTRF, CHO K1 cells expressing the receptor) (human glucagon receptor [1]) | IC50 of inhibition of glucagon-induced cAMP production (HTRF, CHO K1 cells expressing the receptor) (mouse glucagon receptor [2]) | IC50 of inhibition of glucagon-induced cAMP production (HTRF, CHO K1 cells expressing the receptor) [3] | IC50 of inhibition of glucagon-induced cAMP production (HTRF, CHO K1 cells expressing the receptor) (rat glucagon receptor [4]) | Kb (dissociation constant of antibody binding by Schild analysis) (human glucagon receptor [5]) | Kb (dissociation constant of antibody binding by Schild analysis) (mouse glucagon receptor [6]) | Kb (dissociation constant of antibody binding by Schild analysis) [7] | Kb (dissociation constant of antibody binding by Schild analysis) (rat glucagon receptor [8]) | binding result [9] | binding result [10] | binding result [11] | IC50 of inhibition of glucagon-induced cAMP production (HTRF, CHO K1 cells expressing the receptor) (human glucagon receptor [12])
B1 | 9.1 nM | 4.9 nM | 22.5 nM | 13.5 nM | 1.6 nM | 0.5 nM | 5 nM | 3.2 nM | – | – | – | –
B2 | 18.1 nM | 10.1 nM | 52.1 nM | 17.2 nM | 1.76 nM | 0.88 nM | 5.7 nM | – | – | – | – | –
B3 | – | – | – | – | – | – | – | – | no binding | no binding | no binding | 204 nM
B4 | – | – | – | – | – | – | – | – | no binding | no binding | no binding | 47.2 nM
